Experimental data reported in article doi:10.1101/553511 (bioRxiv, 2019).

B1: ΔKAP1 (23-812) (domain or fragment)
chain: GEGSAGGEKRSTAPSAAASASASAAASSPAGGGAEALELLEHCGVCRERLRPEREPRLLPCLHSACSACLGPAAPAAANSSGDGGAAGDGTVVDCPVCKQQCFSKDIVENYFMRDSGSKAATDAQDANQCCTSCEDNAPATSYCVECSEPLCETCVEAHQRVKYTKDHTVRSTGPAKSRDGERTVYCNVHKHEPLVLFCESCDTLTCRDCQLNAHKDHQYQFLEDAVRNQRKLLASLVKRLGDKHATLQKSTKEVRSSIRQVSDVQKRVQVDVKMAILQIMKELNKRGRVLVNDAQKVTEGQQERLERQHWTMTKIQKHQEHILRFASWALESDNNTALLLSKKLIYFQLHRALKMIVDPVEPHGEMKFQWDLNAWTKSAEAFGKIVAERPGTNSTGPAPMAPPRAPGPLSKQGSGSSQPMEVQEGYGFGSGDDPYSSAEPHVSGVKRSRSGEGEVSGLMRKVPRVSLERLDLDLTADSQPPVFKVFPGSTTEDYNLIVIERGAAAAATGQPGTAPAGTPGAPPLAGMAIVKEEETEAAIGAPPTATEGPETKPVLMALAEGPGAEGPRLASPSGSTSSGLEVVAPEGTSAPGGGPGTLDDSATICRVCQKPGDLVMCNQCEFCFHLDCHLPALQDVPGEEWSCSLCHVLPDLKEEDGSLSLDGADSTGVVAKLSPANQRKCERVLLALFCHEPCRPLHQLATDSTFSLDQPGGTLDLTLIRARLQEKLSPPYSSPQEFAQDVGRMFKQFNKLTEDKADVQSIIGLQRFFETRMNEAFGDTKFSAVLVEP
B2: KAP1 RBCC domain (RBCC, 23-418) (domain or fragment)
chain: GEGSAGGEKRSTAPSAAASASASAAASSPAGGGAEALELLEHCGVCRERLRPEREPRLLPCLHSACSACLGPAAPAAANSSGDGGAAGDGTVVDCPVCKQQCFSKDIVENYFMRDSGSKAATDAQDANQCCTSCEDNAPATSYCVECSEPLCETCVEAHQRVKYTKDHTVRSTGPAKSRDGERTVYCNVHKHEPLVLFCESCDTLTCRDCQLNAHKDHQYQFLEDAVRNQRKLLASLVKRLGDKHATLQKSTKEVRSSIRQVSDVQKRVQVDVKMAILQIMKELNKRGRVLVNDAQKVTEGQQERLERQHWTMTKIQKHQEHILRFASWALESDNNTALLLSKKLIYFQLHRALKMIVDPVEPHGEMKFQWDLNAWTKSAEAFGKIVAERPGTNST
B3: KAP1 full length protein (KAP1 FL, 1-835) (natural protein)
chain: MAASAAAASAAAASAASGSPGPGEGSAGGEKRSTAPSAAASASASAAASSPAGGGAEALELLEHCGVCRERLRPEREPRLLPCLHSACSACLGPAAPAAANSSGDGGAAGDGTVVDCPVCKQQCFSKDIVENYFMRDSGSKAATDAQDANQCCTSCEDNAPATSYCVECSEPLCETCVEAHQRVKYTKDHTVRSTGPAKSRDGERTVYCNVHKHEPLVLFCESCDTLTCRDCQLNAHKDHQYQFLEDAVRNQRKLLASLVKRLGDKHATLQKSTKEVRSSIRQVSDVQKRVQVDVKMAILQIMKELNKRGRVLVNDAQKVTEGQQERLERQHWTMTKIQKHQEHILRFASWALESDNNTALLLSKKLIYFQLHRALKMIVDPVEPHGEMKFQWDLNAWTKSAEAFGKIVAERPGTNSTGPAPMAPPRAPGPLSKQGSGSSQPMEVQEGYGFGSGDDPYSSAEPHVSGVKRSRSGEGEVSGLMRKVPRVSLERLDLDLTADSQPPVFKVFPGSTTEDYNLIVIERGAAAAATGQPGTAPAGTPGAPPLAGMAIVKEEETEAAIGAPPTATEGPETKPVLMALAEGPGAEGPRLASPSGSTSSGLEVVAPEGTSAPGGGPGTLDDSATICRVCQKPGDLVMCNQCEFCFHLDCHLPALQDVPGEEWSCSLCHVLPDLKEEDGSLSLDGADSTGVVAKLSPANQRKCERVLLALFCHEPCRPLHQLATDSTFSLDQPGGTLDLTLIRARLQEKLSPPYSSPQEFAQDVGRMFKQFNKLTEDKADVQSIIGLQRFFETRMNEAFGDTKFSAVLVEPPPMSLPGAGLSSQELSGGPGDGP

Target: the molecule itself
Assay: SEC-MALS

Protein | stoichiometry N
B1 | 2
B2 | 2
B3 | 2
